# The nanobody polyreactivity screen of Harvey et al. (2022)
# Assay: yeast display, Sf9 membrane polyspecificity reagent, FACS + sequencing; frameworks hold sequencing errors
# How it was run: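 Nanobodies from a synthetic yeast display library (Saccharomyces cerevisiae BJ5465), induced 36–48 hours with galactose, were stained 1 hour at 4 °C with 10% biotinylated, detergent-solubilized Sf9 membrane reagent, enriched on streptavidin microbeads, then FACS-sorted. Anti-HA (expression) and streptavidin (reagent binding) fluorescence set low and high (top ~1%) gates. Polyreactivity labels come from the gate of origin. Genes were colony-PCR amplified, MiSeq 2 × 250 sequenced and filtered by CDR length.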
row,Sequence,polyreactivity (PSR sort gate)
1,QVQLVESGGGLVQAGGSLRLSCAASGSIFAANAMGWYRQAPGKERELVAAISRSGNTYYADSVKGRFTISRDNAKNTVYLQMNSLKPEDTAVYYCAARRDAYGRTYGYWGQGTQVTVSS,high polyreactivity
2,QVQLVESGGGLVQAGGSLRLSCAASGYTFLANAMGWYRQAPGKERELVAAISSGGTTYYADSVKGRFTISRDNAKNTVYLQMNSLKPEDTAVYYCAAKDTTVFYYDDDYWGQGTQVTVSS,low polyreactivity
3,QVQLVESGGGLVQAGGSLRLSCAASGGTLGLNAMGWYRQAPGKEREFVAAINRSGGSTRYADSVKGRFTISRDNAKNTVYLQMNSLKPEDTAVYSCAAVGYWGPSGRHKSSKYEYWGQGTQVTVSS,high polyreactivity
4,QVQLVESGGGLVQAGGSLRLSCAASGFIFVRYAMGWYRQAPGKERELVASISGRGSSTYYADSVKGRFTISRDNAKNTVYLQMNSLKPEDTAVYYCAADYYRRIGGYPYDYDYWGQGTQVTVSS,high polyreactivity
5,QVQLVESGGGLVQAGGSLRLSCAASGSIFAYYAMGWYRQAPGKERELVAAIDSGGGTSYADSVKGRFTISRDNAKNTVYLQMNSLNPEDTAVYYCNAAGYVVYYRIIAFGYWGQGTLVTVSS,low polyreactivity
6,QVQLVESGGGLVQAGGSLRLSCAASASTFYGYAMGRFRQAPGKERELVAAISSGGSTYYADSVKGRFTISRDNAKNTVYVQMNSLKPEVTAVYYCAAYSYPKKYGYWGQGTQVTVSL,high polyreactivity
7,QVQLVEAGGGLVQAGGTLRLSCAASGYTFIYYAMGWYRQAPGKERELVATISIDGSTNYADSVKRRFTISRDNAKNTVYLQMNSLKPEDTAVYYCNRERYEDYDYWGQGTQVTVSS,high polyreactivity
8,QVQLVESGGGLVQAGGSLRISCAASGRTFYSYAMGWYRQAPGKERELVAAITWRASTYYADSVKGRFTISRDNAKNTVYLQMNSLKPEDTAVYYCAVRDYRPRYYTFLYNSPYDYWGQGTQVTVSS,high polyreactivity
9,QVQLVESGGGLVQAGGSLRLSCAASGRTFTQYAMGWYRQAPGKDRELVAAIDYRGSRTYYADSVKGRFTLTRDKAKNTVYLQMNSLKPEDTAVYYCNTVHRFGTYDYWGEGTQVTVSS,high polyreactivity
10,QVQLVESGGGLVQAGRSLRLSSAASGNTFAGNAMGWYRQAPGKERELVAAISWSGTRTYYADSVKGRFTISRDNAKNTVYLQMNSLKPEDTAVYYCAKLSTNKEYYWGQGTQVTVSS,high polyreactivity
11,QVQLVESGGGLVQAGGRLRLSCAASGRTLVSNAMGWYRQAPGKERELVAAITYSGGSTYYADSVKGRFTISRDNAKNTVYLQMNSLKPEDTAVYYCAKVGRLYRVGGYDYWGQGTQVTVSS,low polyreactivity
12,QVQLVESGGGLVQAGGSLRLSCAASGRIFHPNAMGWYRRATGKERELVAAISRSGSTYYADSVKGRFTISRDNAKNTVYLQMNSLKPEDTAVYYCATQTWSGYSGTPRIYDYWGQGTQVTVSS,high polyreactivity
13,QVQLVESGGGLVQAGGSLRLSCADSGSIFIANAMGWYRPAPGKERELVAAIDSGGSTNYADSVKGRFTSSRDNAKNTVYLQMNSLKPEDTAVYYCAADGTLTAPGGDYWGQGTQVTVSS,high polyreactivity
14,QVQLVESGGGLVQAGGRLRLSCAASGITFRTNTMGWYRPAPGKERELVASISSGTRTNYADSVKGRFTISRDNAKNTVYLQLNSLKPVDTAVYYCAAGPPRTRYRNARFDYWGQGTQVTVSS,high polyreactivity
15,QVQLVESGGGLVQAGGSLRLSCAASGRIFAVYAMGWYRQAPGKERELVAAIRWSGVRTYYADSVKGRFTISRDNAKNTVYLQMNSLKPEDTAVYYCAAEYSGQYYSPVSFLYDYWGQGTQVTVSS,high polyreactivity
16,QVQLVESGGGLVQAGGSLRLSCAASGSIFNLYAMGWYRQAPGKEREMVAAISYSTGSTYYADSVKGRFTISRDNAKNTVYLQMTSLKPEDTAVYYCNAQEGILGWVLYDYWGQGTQVTVSS,high polyreactivity
17,QVQIVESGGGLFQAGGSLRISCAASGFTFPNYAMGWYRQAPGKERELVAAITSGGGRSNYADCVKGRFTISRDNAKKTFYLEMNSLKPEDSAVYYCAKTRVRGSEFGYWGQGTQVTVSS,low polyreactivity
18,QVQLVESGGGLVQAGGSLRLSCAASGSIFVVYAMGWYRQAPGKERELVASIRTGGSTNYADSVKGRFTISRDNAKNTVYLQMNSLKPEDTAVYYCAAASWNCNRHYYVARYYYWGQGTQVNVSS,high polyreactivity
19,QVQLVESGGGLVQAGGSLRLSCAASGLTFNVNPIVWYRQAPGKEREMVARITTSGGSTSYADSVKGRFTISRDNAKNTVYLQMNSLKPEDSAVYYCAADRARYYSEYDYWGQGTQVTVSS,low polyreactivity
20,QVQLVESGGGLVQAGGSLRLSCAASGRIFDFNAMGWYRQAPGKEREFVAAIRTSGGDSTYYADSVKGRFTISRDNAKTTVYLQMNSLTPEDTAVYYCAKTVWWYYRYPFDYWGQGTQVTVSS,low polyreactivity
21,QVQLVESGGGLVQAGGSLRLSCAASGRTFTTNAMGWYRQAPGKERELVAGISYSTGRTYYADSVKGRFTISRDNAKNTVYLQMNSLKPEDTAVYYCAAYTRGYRGYYYWGQGTQVTVSS,high polyreactivity

row,Sequence,polyreactivity (PSR sort gate)
1,QVQLVESGGGLVQAGGTLRLSCAASGRIFPYYAMGWYRQAPGKERELVAAINSGGSTYYADSVKGRFTISRDNEKNTVYLQMNSLKPEDSAVYYCAVDPGYYDEYNYWGEGTQVTVSS,low polyreactivity
2,QVQLVESGGGLVQAGGSLRLICAASGSIFTVYAMGWYRQAPGKERELVADIDYGGTYYADSVKGRFTISRDNAKNTVYLQMNSLKPEDTAVYYCAALAALDYGQLYLDDDDYWGQGTQVTVSS,low polyreactivity
3,QVQLVESGGGLVQAGGSLRLSCAASGSIFTFYTMGWYRQAPGKERELVAAINWSGSRTYYADSVKGRFTISRDNAKNTVYLQMNSLIQEDTAVYYCNVRCYYKRRYGWYSYRYGYWGQGTQVTVSS,high polyreactivity
4,QVQLVESGGGLVQAGGSLRLSCAASGRTFWRNAMGWYRQAPGKERELVAAISRGGSTKYADSVKGRFTISRDNAKNTVYLQMNSLKPEDTAVYYCAAATPGRYGYWGQGTQVTVSS,high polyreactivity
5,QVQLVESGGGLVQAGGSLRLSCAASGRIFHQYGMGGYSQAPGKERELVAAIRSGDSTNYADSVKGRFTISRDNAKNTVYVQMNSLKPEDTAVYYCARDRPGDYAGYDYWGQGTQVTVSS,low polyreactivity
6,QVQLVQSGGGLVQAGGSLRLSCAASGRIFKYNAMGWYRQAPGKERDLVAVITSGGSTYYADSVKGRFTISRDNAKNTFYLQMNSQKPEDTAVYSCAKKYYKVHKFDYWGQGTQVTVSS,low polyreactivity
7,QVQLVESGGGLVQAGGSLRLSCAASGSTFAGNAMGWYRQAPGKERELVAAITSGTGTHYADSVKGRFSISRDNAKNTVYLQMNSLKPEDTAVYYCAAEVWSWAGIWGYEYWGQGTQVTVSS,low polyreactivity
8,QVQLVESGGGLVQAGGSLRLSCAASGSTFGYYAMGWYRQAPGKESELVAAISAGGGSTYYADSVKGRFTISRDNAKNTVYLQLNSLKPEDTAVYFCAARRPHMPVKTYDYWGQGTLVTVSS,high polyreactivity
9,QVQLVESGGGLVQAGGSLRLSCAASGYIFQRDAMGWYRTAPGKEREFVAAIRYSGGSTYYADSVKGRFTISRDNAKNTVYLQMNCLKPEDTAVYYCAADQRDPWRSAYGYYYWGQGTQVTVSS,high polyreactivity
10,QFQLGESGGGLVQAGGSLRLSCAASGYIFKKNAMGWYRQAPGYERELVAVISARGGRTYYADSVKGRFTISRDKGKNTVYLQMNSLKPEDTAVYYCAAVSLGITYDYWGQGTQVTVSS,low polyreactivity
11,QVQLVESGGGLVQAGGSLRLSCAASGSTFAIYAMGWYRPAPGKERELVASISGGSTNYADSVKGRFTISRDNAKNTVDLQMNSLKPEDTADYYCAARGALHHWYRYDYWGQGTQVTVSS,low polyreactivity
12,QVQLVESGGGLVQAGGSLRLSCAASGSILGSNAMGWYRQAPGKERELVAAITSSGGSTYYADSVKGRFTISRDNAKNTVYLQMNSLKPEDTAVYYCAARTNYDSTRGEYDYWGQGTQVTVSS,low polyreactivity
13,QVQLVESGGGLVQAGGSLRLSCAASGSTFSLYARGWYRQAPGKETELVAAITRGGNTYYADSVKGRFTISRDNAKNTVYLQMNSLKPEDTAVYYCNAYYYQFRGIRVSGGYWGQGTQVTVSS,high polyreactivity
14,QVQLVESGGGLVQAGGSLRLSCAASGSTFRYNAMGWYRQAPGKERELVAAINRGGGTDYADSVKGRFTISRDNAKNTVYLQMNSLKPEDTAVYYCNATTGYGGYNYWGQGTQVTVSS,low polyreactivity
15,QVQLVESGGGLVQAGGSLRLSCAASGSTFWDYTMGWYRQAPGKERELVAAINYSDGSTYYADSVKGRFTISRDNAKNTVYLQMNSLKPEDTAVYYCAAGSDPTGRRYDYWGQGTQVTVSS,low polyreactivity
16,QVQLVESCGGLVQAGGSLRLSCAASGRTFTDYVMGWYRQAPGKERELVAGIRRSGGTYYADSVKGRFTISRDNAKNTVYLQMNSLKPEDTAVYYCAAPVQTGPDPEYDYWGQGTQVTVSS,low polyreactivity
17,QVQLVESGGGLVQAGGSLRLSCAASGYIFYTYAMGWYRQAPGKERELVASIDSGGSTNYADSVKGRFTISRDNAKNTVYLQMNSLKPEDTAVYYCAADVIVRVYYYYYVLMDYWGHGTQVTVSS,low polyreactivity
18,QVQLVESGGGLVQAGGSLRLICAASGLTFRYYAMGWYRQAPGKERELVAAITRGGSTYYADSVKGRFTISRDNAKNTVYLQMNSLKPEDTAVYYCAAYDVRYNTYDYDYWGQGTQVTVSS,high polyreactivity
19,QVQLVESGGGLVQAGGSLRLSCAASGIVRQNPMGWYRQAPGKERELVACISQSGGSTYYADSVKGRFTISRDNAKNTVYLQMNSLKPEDTAVYYCAVVSIWGYDYWGEGTQVTVSS,low polyreactivity
20,QVQHVESGGRLVQAGGSLRLSCAASGSIFGRYVMGWYRQAPGKESELVAAISGSGGSTNYADSVKGRFTISRDNAKNTVYLQMNSLKPEDTAVYYCATLRWFWYTRSTRIGDYWGQGTQVTVSS,high polyreactivity
